The record followed here is publication PMC12487888, “Molecular basis of the biogenesis of a protein organelle for ethanolamine utilization” (Science Advances, 2025).

B3: EutL-strep (natural protein, S. Typhimurium LT2, UniProt P0A1C9 1-219, looked up)
chain: MPALDLIRPSVTAMRVIASVNDGFARELKLPPHIRSLGLITADSDDVTYIAADEATKQAMVEVVYGRSLYAGAAHGPSPTAGEVLIMLGGPNPAEVRAGLDAMVASIENGAAFQWANDAENTAFLAHVVSRTGSYLSSTAGIALGDPMAYLVAPPLEATFGIDAAMKSADVQLVTYVPPPSETNYSAAFLTGSQAACKAACNAFTDAVLDIARNPVQRA
notes: shell protein EutL of S. Typhimurium LT2; the eutL gene was inserted into pET-22b (+); not shown: Strep tag, C-terminal, kept

Common to all, as to settings: both partners purified
The test “EutL-strep” concerns the target B3. In words: MST; His-tagged target protein labelled with dye, 0.25 μM; unlabelled strep-tagged protein in twofold dilution series (EutL up to 24 μM, EutQ up to 108 μM); Monolith NT.115, 25°C, 60% excitation power.
The target in a further test is T1, EutQ-strep (S. Typhimurium LT2, UniProt Q9ZFV5 1-229).
T1 construct: EutQ of S. Typhimurium LT2; the eutQ gene was inserted into pET-22b (+); source: E. coli BL21(DE3), purified (Strep-tag XT, gel filtration); not shown: Strep tag, C-terminal, kept
T1 sequence: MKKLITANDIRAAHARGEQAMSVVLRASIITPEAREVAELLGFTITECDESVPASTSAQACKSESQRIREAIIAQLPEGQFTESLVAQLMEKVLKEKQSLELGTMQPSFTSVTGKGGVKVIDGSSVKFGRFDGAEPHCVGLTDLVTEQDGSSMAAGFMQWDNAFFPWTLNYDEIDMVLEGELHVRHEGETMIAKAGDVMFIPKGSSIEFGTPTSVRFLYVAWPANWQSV
The description is as above.

A further test addresses T2, EutQ (residues 1 to 229) (S. Typhimurium LT2, UniProt Q9ZFV5 1-229).
T2 construct: About 25 kDa per monomer, about 50 kDa dimer by SEC-MALS; Uniformly 15N-labelled for NMR; also called full-length EutQ; WT EutQ; source: E. coli BL21 (DE3) star, purified (His-trap, SEC on S200 Superdex)
T2 sequence: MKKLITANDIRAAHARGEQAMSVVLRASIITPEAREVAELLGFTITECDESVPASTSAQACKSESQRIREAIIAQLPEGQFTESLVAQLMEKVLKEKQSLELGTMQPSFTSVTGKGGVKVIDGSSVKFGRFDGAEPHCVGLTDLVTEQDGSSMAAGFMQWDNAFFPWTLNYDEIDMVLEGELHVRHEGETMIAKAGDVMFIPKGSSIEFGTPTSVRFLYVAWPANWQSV
In words: ITC; 20 μM protein in the cell, 200 to 400 μM peptide in the syringe; 19 injections, 25°C; 20 mM Na2HPO4, 20 mM NaCl, pH 6.5. For orientation: Isothermal titration calorimetry measures the heat released or taken up as one component is titrated into another.

In test [1] the target is T3, EutQ N-terminal domain fused with GB1 at its C terminus (EutQ^1–99-GB1) (S. Typhimurium LT2, UniProt Q9ZFV5 1-99).
T3 construct: EutQ of S. Typhimurium LT2, N-terminal region, residues 1-99 (helices H1 to H4); Cloned into pETM11; Order of the chain: EutQ 1-99, hexahistidine tag, GB1; Uniformly 15N-labelled (15N, 13C for assignment) for NMR; also called N-terminal region of EutQ; source: E. coli BL21 (DE3) star, purified (His-trap, SEC on S200 Superdex)
T3 sequence: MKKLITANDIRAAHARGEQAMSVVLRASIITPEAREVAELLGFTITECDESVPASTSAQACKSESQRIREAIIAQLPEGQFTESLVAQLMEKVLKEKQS
Described as above.

A further test has as its target T4, EutQ Q75A (S. Typhimurium LT2, UniProt Q9ZFV5 1-229, Q75A).
T4 construct: EutQ of S. Typhimurium LT2 with the point mutation Q75A; also called Q75A mutant
T4 sequence: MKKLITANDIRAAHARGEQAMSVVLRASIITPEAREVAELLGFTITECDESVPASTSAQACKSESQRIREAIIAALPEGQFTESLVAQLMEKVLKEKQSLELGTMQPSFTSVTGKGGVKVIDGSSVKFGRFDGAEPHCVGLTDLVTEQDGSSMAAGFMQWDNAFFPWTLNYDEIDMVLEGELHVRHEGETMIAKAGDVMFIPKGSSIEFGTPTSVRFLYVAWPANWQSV
Briefly: ITC; point mutants of EutQ against EutC^1–20 (figs. S25 and S26); the method is not given, the Kd is compared with the ITC Kd of WT EutQ.

The next test has as its target T5, EutQ-his (S. Typhimurium LT2, UniProt Q9ZFV5 1-229, dye on the His tag (His-tagged target proteins were labelled with dyes)).
T5 construct: EutQ of S. Typhimurium LT2; the eutQ gene was inserted into pET-22b (+); source: E. coli BL21(DE3), purified (Ni-NTA, gel filtration); not shown: His tag, C-terminal, kept
T5 sequence (looked up): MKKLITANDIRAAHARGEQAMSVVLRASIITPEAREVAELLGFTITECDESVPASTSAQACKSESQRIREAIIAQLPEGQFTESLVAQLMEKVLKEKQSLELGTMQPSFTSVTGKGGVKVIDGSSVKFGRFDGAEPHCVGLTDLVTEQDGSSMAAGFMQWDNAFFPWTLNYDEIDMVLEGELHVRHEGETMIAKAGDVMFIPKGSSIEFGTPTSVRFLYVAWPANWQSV
In words: MST; His-tagged target protein labelled with dye, 0.25 μM; unlabelled strep-tagged protein in twofold dilution series (EutL up to 24 μM, EutQ up to 108 μM); Monolith NT.115, 25°C, 60% excitation power.

In general, Kd refers to the constant that tells how readily two partners part at equilibrium. The term stoichiometry N denotes a count of units in the complex or per binding partner.

B1: EutM-his (natural protein)
chain: MEALGMIETRGLVALIEASDAMVKAARVKLVGVKQIGGGLCTAMVRGDVAACKAATDAGAAAAQRIGELVSVHVIPRPHGDLEEVFPISFKGDSNI
modifications: dye on the His tag (His-tagged target proteins were labelled with dyes)
notes: shell protein EutM of S. Typhimurium LT2; the eutM gene was inserted into pET-22b (+); source: E. coli BL21(DE3), purified (Ni-NTA, gel filtration); not shown: His tag, C-terminal, kept
For B1, the binding result in the test with EutL-strep and with EutQ-strep was “binds” each time.

B2: EutC^1–20 encapsulation peptide (peptide)
peptide: MDQKQIEEIVRSVMASMGQD
notes: EutC of S. Typhimurium LT2, N-terminal encapsulation peptide, residues 1-20; also called EutC peptide; EP of EutC; source: synthetic peptide (GenicBio)
Take B2: in the test with EutQ (residues 1 to 229), the Kd worked out at 6.35 µM, the dH was -9.24 ± 0.01 kcal/mol and the “stoichiometry N” value is about 2. Also, in test [1], binding was put at a Kd of 7.6 µM, the dH is -9.63 ± 0.48 kcal/mol and the “stoichiometry N” value was about 1. In the test with EutQ Q75A, this molecule yielded a dissociation constant Kd of 21.5 µM.

B3: the binding result in the test with EutQ-his is recorded as “binds”.
